Legend:
Ino2pDBD WT;Ino4pDBD WT [1] = target: T1, Ino2pDBD WT;Ino4pDBD WT (Saccharomyces cerevisiae (genomic DNA …, UniProt P26798;P13902 230-304;40-117, |)); experiment: ITC; 10 C; 20 mM Tris-HCl pH 8.0, 100 mM NaCl (buffer B); EMSA 1.5 uM DNA, 1.5-150 uM protein, 1 h on ice; ITC at 10 C, 400 uM DNA into 20 uM protein; conditions: protein: recombinant;recombinant; tags: N-terminal His6;none (with His-Ino2p); copies: 1;1; 14 bp with 5' overhang 1 nt at each end
T1 sequence 1: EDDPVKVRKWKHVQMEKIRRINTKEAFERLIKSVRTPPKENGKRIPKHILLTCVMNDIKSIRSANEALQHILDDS
T1 sequence 2: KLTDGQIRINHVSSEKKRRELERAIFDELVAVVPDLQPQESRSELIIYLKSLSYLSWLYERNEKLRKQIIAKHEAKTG

Ino2pDBD WT;Ino4pMut = target: T2, Ino2pDBD WT;Ino4pMut (Saccharomyces cerevisiae (genomic DNA …, UniProt P26798;P13902 230-304;40-117, |H50A;E54A;R57A;R58A)); experiment: as above; conditions: protein: recombinant;recombinant; tags: N-terminal His6;none; copies: 1;1; 14 bp with 5' overhang 1 nt at each end
T2 sequence 1: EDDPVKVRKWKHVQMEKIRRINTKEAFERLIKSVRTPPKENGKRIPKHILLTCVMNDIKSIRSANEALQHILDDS
T2 sequence 2: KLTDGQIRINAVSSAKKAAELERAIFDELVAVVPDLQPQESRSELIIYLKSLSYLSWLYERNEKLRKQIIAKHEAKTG

Ino2pMut;Ino4pDBD WT = target: T3, Ino2pMut;Ino4pDBD WT (Saccharomyces cerevisiae;Saccharomyces …, UniProt P26798;P13902 230-304;40-117, H241A;E245A;R249A;R273A|); experiment: as above; conditions: protein: recombinant;recombinant; tags: N-terminal His6;none (with His-Ino2p); copies: 1;1; 14 bp with 5' overhang 1 nt at each end
T3 sequence 1: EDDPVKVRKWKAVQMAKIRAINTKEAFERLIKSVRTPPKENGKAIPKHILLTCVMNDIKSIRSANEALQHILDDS
T3 sequence 2: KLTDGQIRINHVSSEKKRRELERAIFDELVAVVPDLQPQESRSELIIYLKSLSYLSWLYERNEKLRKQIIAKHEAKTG

Ino2pDBD WT;Ino4pDBD WT [2] = target: T1, Ino2pDBD WT;Ino4pDBD WT; experiment: EMSA; 20 mM Tris-HCl pH 8.0, 100 mM NaCl (buffer B); EMSA 1.5 uM DNA, 1.5-150 uM protein, 1 h on ice; ITC at 10 C, 400 uM DNA into 20 uM protein; conditions: protein: recombinant;recombinant, tags: N-terminal His6;none (with His-Ino2p), copies: 1;1

B1: 15bp-GC promoter DNA (dsDNA)
DNA 1: GATTTTCACATGCAG
DNA 2: CCTGCATGTGAAAAT
Ino2pDBD WT;Ino4pDBD WT [1]
  Kd: 749 nM
Ino2pDBD WT;Ino4pMut
  binding result: no binding
Ino2pMut;Ino4pDBD WT
  binding result: no binding

B2: 19bp-FAM promoter DNA (dsDNA)
DNA 1: GAATTTTCACATGCAGATC
DNA 2: GATCTGCATGTGAAAATTC
Ino2pDBD WT;Ino4pDBD WT [2]; label: 5'-FAM on sense strand, blunt
  binding result: binds

B3: Flanking mutant promoter DNA (dsDNA)
DNA 1: GAGGGTCACATGCAG
DNA 2: CTGCATGTGACCCTC
Ino2pDBD WT;Ino4pDBD WT [2]
  binding result: binds

— paper PMC9315497, “Structural Analysis of Ino2p/Ino4p Mutual Interactions and Their Binding Interface with Promoter DNA”
